Measured values taken from the supplement of paper PMC5998384.

What was measured:
[1] = tested on: HeLa Kyoto; test: melting temperature (median over replicates), in situ; higher = more thermally stable
[2] = tested on: HeLa Kyoto; test: solubility change mitosis vs G1/S (difference of NP-40 vs SDS log2 ratios) (log2 ratio difference); higher = more soluble in mitosis
[3] = tested on: HeLa Kyoto; test: solubility in G1/S (NP-40 vs SDS abundance) (log2 ratio); higher = more soluble; settings: cell cycle stage: G1/S
[4] = tested on: HeLa Kyoto; test: thermal stability score vs G1/S (z-score of summed log2 fold changes over temperatures); higher = more thermally stable than in G1/S
[5] = cell cycle stage: early G1 (4.5 h after nocodazole release)
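For melting temperature (median over replicates), in situ in this document: HeLa Kyoto cells synchronized by double thymidine or nocodazole block, proteins quantified by TMT10plex mass spectrometry, three independent biological replicates.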
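For solubility change mitosis vs G1/S (difference of NP-40 vs SDS log2 ratios) in this document: synchronized HeLa Kyoto cells (double thymidine block for G1/S, nocodazole release for mitosis), protein amounts in NP-40 versus SDS lysates quantified by mass spectrometry, three biological replicates.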
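For solubility in G1/S (NP-40 vs SDS abundance) in this document: HeLa Kyoto cells arrested at G1/S by double thymidine block, proteins quantified by TMT10plex mass spectrometry in mild NP-40 versus SDS extracts, three biological replicates.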
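For thermal stability score vs G1/S (z-score of summed log2 fold changes over temperatures) in this document: synchronized HeLa Kyoto cells, proteins quantified by TMT10plex mass spectrometry, three biological replicates, mitosis taken 0.5 h after nocodazole release, G1/S directly after double thymidine block.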

CHID1, sequence (chain, as listed by the source): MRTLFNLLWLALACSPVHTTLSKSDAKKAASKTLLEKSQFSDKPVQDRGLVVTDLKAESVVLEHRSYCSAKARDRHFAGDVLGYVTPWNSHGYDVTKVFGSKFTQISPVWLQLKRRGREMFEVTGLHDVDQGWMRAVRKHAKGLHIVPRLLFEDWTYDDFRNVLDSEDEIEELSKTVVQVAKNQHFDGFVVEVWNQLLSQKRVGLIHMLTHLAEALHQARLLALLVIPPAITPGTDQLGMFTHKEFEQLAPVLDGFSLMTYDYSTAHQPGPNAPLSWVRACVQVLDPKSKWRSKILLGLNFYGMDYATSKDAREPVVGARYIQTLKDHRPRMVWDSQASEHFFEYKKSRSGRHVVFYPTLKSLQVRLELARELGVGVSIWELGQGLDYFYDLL

Row | Substance | melting temperature ([1]; cell cycle stage: G1/S) [°C] | melting temperature ([1]; cell cycle stage: mitosis) [°C] | solubility change mitosis (log2) [2] | solubility in G1/S (log2) [3] | thermal stability score [4, 5] | thermal stability score ([4]; cell cycle stage: mitosis)
1 | MAAASAVSVLLVAAERNRWHRLPSLLLPPRTWVWRQRTMKYTTATGRNITKVLIANRGEIACRVMRTAKKLGVQTVAVYSEADRNSMHVDMADEAYSIGPAPSQQSYLSMEKIIQVAKTSAAQAIHPGCGFLSENMEFAELCKQEGIIFIGPPPSAIRDMGIKSTSKSIMAAAGVPVVEGYHGEDQSDQCLKEHARRIGYPVMIKAVRGGGGKGMRIVRSEQEFQEQLESARREAKKSFNDDAMLIEKFVDTPRHVEVQVFGDHHGNAVYLFERDCSVQRRHQKIIEEAPAPGIKSEVRKKLGEAAVRAAKAVNYVGAGTVEFIMDSKHNFCFMEMNTRLQVEHPVTEMITGTDLVEWQLRIAAGEKIPLSQEEITLQGHAFEARIYAEDPSNNFMPVAGPLVHLSTPRADPSTRIETGVRQGDEVSVHYDPMIAKLVVWAADRQAALTKLRYSLRQYNIVGLHTNIDFLLNLSGHPEFEAGNVHTDFIPQHHKQLLLSRKAAAKESLCQAALGLILKEKAMTDTFTLQAHDQFSPFSSSSGRRLNISYTRNMTLKDGKNNVAIAVTYNHDGSYSMQIEDKTFQVLGNLYSEGDCTYLKCSVNGVASKAKLIILENTIYLFSKEGSIEIDIPVPKYLSSVSSQETQGGPLAPMTGTIEKVFVKAGDKVKAGDSLMVMIAMKMEHTIKSPKDGTVKKVFYREGAQANRHTPLVEFEEEESDKRESE [MCCC1] | 51.4 | 51.3 | -0.125 | -0.0598 | -0.414 | -0.17
2 | MLFYSFFKSLVGKDVVVELKNDLSICGTLHSVDQYLNIKLTDISVTDPEKYPHMLSVKNCFIRGSVVRYVQLPADEVDTQLLQDAARKEALQQKQ [LSM2] | 59.9 | 57.5 | 0.0659 | -0.0676 | -1.17 | -1.99
3 | MELSAEYLREKLQRDLEAEHVEVEDTTLNRCSCSFRVLVVSAKFEGKPLLQRHRLVNACLAEELPHIHAFEQKTLTPDQWARERQK [BOLA2] | 50.9 | 51.9 | 0.186 | -0.0477 | 0.374 | 0.288
4 | CHID1 | 53.4 | 54 | -0.0199 | -0.16 | 0.711 | 2.28
5 | MASESDTEEFYDAPEDVHLGGGYPVGSPGKVGLSTFKETENTAYKVGNESPVQELKQDVSKKIIESIIEESQKVLQLEDDSLDSKGKELSDQATASPIVARTDLSNIPGLLAIDQVLPEESQKAESQNTFEETELELKKCFPSDETCEKPVDETTKLTQTSSTEQLNVLETETEVLNKEAVEVKGGGDVLEPVSSDSLSTKDFAAVEEVAPAKPPRHLTPEPDIVASTKKPVPARPPPPTNFPPPRPPPPSRPAPPPRKRKSELEFETLKTPDIDVPKENITSDSLLTASMASESTVKDSQPSLDLASATSGDKIVTAQENGKAPDGQTVAGEVMGPQRPRSNSGRELTDEEILASVMIKNLDTGEEIPLSLAEEKLPTGINPLTLHIMRRTKEYVSNDAAQSDDEEKLQSQPTDTDGGRLKQKTTQLKKFLGKSVKRAKHLAEEYGERAINKVKSVRDEVFHTDQDDPSSSDDEGMPYTRPVKFKAAHGFKGPYDFDQIKVVQDLSGEHMGAVWTMKFSHCGRLLASAGQDNVVRIWALKNAFDYFNNMRMKYNTEGRVSPSPSQESLSSSKSDTDTGVCSGTDEDPDDKNAPFRQRPFCKYKGHTADLLDLSWSKNYFLLSSSMDKTVRLWHISRRECLCCFQHIDFVTAIAFHPRDDRYFLSGSLDGKLRLWNIPDKKVALWNEVDGQTKLITAANFCQNGKYAVIGTYDGRCIFYDTEHLKYHTQIHVRSTRGRNKVGRKITGIEPLPGENKILVTSNDSRIRLYDLRDLSLSMKYKGYVNSSSQIKASFSHDFTYLVSGSEDKYVYIWSTYHDLSKFTSVRRDRNDFWEGIKAHNAVVTSAIFAPNPSLMLSLDVQSEKSEGNEKSEDAEVLDATPSGIMKTDNTEVLLSADFTGAIKVFVNKRKNVS [WDR44] | 55.7 | 55.1 | -0.145 | -0.102 | -1.63 | -2.21
6 | MTDAAVSFAKDFLAGGVAAAISKTAVAPIERVKLLLQVQHASKQITADKQYKGIIDCVVRIPKEQGVLSFWRGNLANVIRYFPTQALNFAFKDKYKQIFLGGVDKRTQFWLYFAGNLASGGAAGATSLCFVYPLDFARTRLAADVGKAGAEREFRGLGDCLVKIYKSDGIKGLYQGFNVSVQGIIIYRAAYFGIYDTAKGMLPDPKNTHIVISWMIAQTVTAVAGLTSYPFDTVRRRMMMQSGRKGTDIMYTGTLDCWRKIARDEGGKAFFKGAWSNVLRGMGGAFVLVLYDEIKKYT [SLC25A5] | 56.9 | 55.9 | -0.12 | -0.308 | -2.25 | -3.52
7 | MSSSPVKRQRMESALDQLKQFTTVVADTGDFHAIDEYKPQDATTNPSLILAAAQMPAYQELVEEAIAYGRKLGGSQEDQIKNAIDKLFVLFGAEILKKIPGRVSTEVDARLSFDKDAMVARARRLIELYKEAGISKDRILIKLSSTWEGIQAGKELEEQHGIHCNMTLLFSFAQAVACAEAGVTLISPFVGRILDWHVANTDKKSYEPLEDPGVKSVTKIYNYYKKFSYKTIVMGASFRNTGEIKALAGCDFLTISPKLLGELLQDNAKLVPVLSAKAAQASDLEKIHLDEKSFRWLHNEDQMAVEKLSDGIRKFAADAVKLERMLTERMFNAENGK [TALDO1] | 54.4 | 52.5 | -0.00294 | 0.572 | -7.63 | -3.31
8 | MEALILEPSLYTVKAILILDNDGDRLFAKYYDDTYPSVKEQKAFEKNIFNKTHRTDSEIALLEGLTVVYKSSIDLYFYVIGSSYENELMLMAVLNCLFDSLSQMLRKNVEKRALLENMEGLFLAVDEIVDGGVILESDPQQVVHRVALRGEDVPLTEQTVSQVLQSAKEQIKWSLLR [COPZ1] | 52.4 | 53.1 | 0.197 | 0.235 | -1.54 | -1.52
9 | MDEDGLPLMGSGIDLTKVPAIQQKRTVAFLNQFVVHTVQFLNRFSTVCEEKLADLSLRIQQIETTLNILDAKLSSIPGLDDVTVEVSPLNVTSVTNGAHPEATSEQPQQNSTQDSGLQESEVSAENILTVAKDPRYARYLKMVQVGVPVMAIRNKMISEGLDPDLLERPDAPVPDGESEKTVEESSDSESSFSD [CCDC53] | 52.7 |  | -0.0689 | -0.349 | 0.159 | -0.73
10 | MEKIPVSAFLLLVALSYTLARDTTVKPGAKKDTKDSRPKLPQTLSRGWGDQLIWTQTYEEALYKSKTSNKPLMIIHHLDECPHSQALKKVFAENKEIQKLAEQFVLLNLVYETTDKHLSPDGQYVPRIMFVDPSLTVRADITGRYSNRLYAYEPADTALLLDNMKKALKLLKTEL [AGR2] | 53.8 | 53.4 | 0.3 | 0.49 | 0.575 | -1.24
11 | MPEINTNHLDKQQVQLLAEMCILIDENDNKIGAETKKNCHLNENIEKGLLHRAFSVFLFNTENKLLLQQRSDAKITFPGCFTNTCCSHPLSNPAELEESDALGVRRAAQRRLKAELGIPLEEVPPEEINYLTRIHYKAQSDGIWGEHEIDYILLVRKNVTLNPDPNEIKSYCYVSKEELKELLKKAASGEIKITPWFKIIAATFLFKWWDNLNHLNQFVDHEKIYRM [IDI1] | 54.1 | 53.4 | 0.0595 | 0.145 | 0.472 | -0.519
12 | NFAT5 | 50 | 50.6 | -0.176 | -0.0162 | 0.898 | 1.21
13 | MASLDDPGEVREGFLCPLCLKDLQSFYQLHSHYEEEHSGEDRDVKGQIKSLVQKAKKAKDRLLKREGDDRAESGTQGYESFSYGGVDPYMWEPQELGAVRSHLSDFKKHRAARIDHYVVEVNKLIIRLEKLTAFDRTNTESAKIRAIEKSVVPWVNDQDVPFCPDCGNKFSIRNRRHHCRLCGSIMCKKCMELISLPLANKLTSASKESLSTHTSPSQSPNSVHGSRRGSISSMSSVSSVLDEKDDDRIRCCTHCKDTLLKREQQIDEKEHTPDIVKLYEKLRLCMEKVDQKAPEYIRMAASLNAGETTYSLEHASDLRVEVQKVYELIDALSKKILTLGLNQDPPPHPSNLRLQRMIRYSATLFVQEKLLGLMSLPTKEQFEELKKKRKEEMERKRAVERQAALESQRRLEERQSGLASRAANGEVASLRRGPAPLRKAEGWLPLSGGQGQSEDSDPLLQQIHNITSFIRQAKAAGRMDEVRTLQENLRQLQDEYDQQQTEKAIELSRRQAEEEDLQREQLQMLRERELEREREQFRVASLHTRTRSLDFREIGPFQLEPSREPRTHLAYALDLGSSPVPSSTAPKTPSLSSTQPTRVWSGPPAVGQERLPQSSMPQQHEGPSLNPFDEEDLSSPMEEATTGPPAAGVSLDPSARILKEYNPFEEEDEEEEAVAGNPFIQPDSPAPNPFSEEDEHPQQRLSSPLVPGNPFEEPTCINPFEMDSDSGPEAEEPIEEELLLQQIDNIKAYIFDAKQCGRLDEVEVLTENLRELKHTLAKQKGGTD [RBSN] | 50.7 | 50.4 | -0.00797 | 0.33 | 0.55 | 1.28
14 | MDTEGFGELLQQAEQLAAETEGISELPHVERNLQEIQQAGERLRSRTLTRTSQETADVKASVLLGSRGLDISHISQRLESLSAATTFEPLEPVKDTDIQGFLKNEKDNALLSAIEESRKRTFGMAEEYHRESMLVEWEQVKQRILHTLLASGEDALDFTQESEPSYISDVGPPGRSSLDNIEMAYARQIYIYNEKIVNGHLQPNLVDLCASVAELDDKSISDMWTMVKQMTDVLLTPATDALKNRSSVEVRMEFVRQALAYLEQSYKNYTLVTVFGNLHQAQLGGVPGTYQLVRSFLNIKLPAPLPGLQDGEVEGHPVWALIYYCMRCGDLLAASQVVNRAQHQLGEFKTWFQEYMNSKDRRLSPATENKLRLHYRRALRNNTDPYKRAVYCIIGRCDVTDNQSEVADKTEDYLWLKLNQVCFDDDGTSSPQDRLTLSQFQKQLLEDYGESHFTVNQQPFLYFQVLFLTAQFEAAVAFLFRMERLRCHAVHVALVLFELKLLLKSSGQSAQLLSHEPGDPPCLRRLNFVRLLMLYTRKFESTDPREALQYFYFLRDEKDSQGENMFLRCVSELVIESREFDMILGKLENDGSRKPGVIDKFTSDTKPIINKVASVAENKGLFEEAAKLYDLAKNADKVLELMNKLLSPVVPQISAPQSNKERLKNMALSIAERYRAQGISANKFVDSTFYLLLDLITFFDEYHSGHIDRAFDIIERLKLVPLNQESVEERVAAFRNFSDEIRHNLSEVLLATMNILFTQFKRLKGTSPSSSSRPQRVIEDRDSQLRSQARTLITFAGMIPYRTSGDTNARLVQMEVLMN [NUP93] | 51.9 | 48.3 | 0.117 | -0.149 | -3.26 | -4.55
15 | MWIQVRTIDGSKTCTIEDVSRKATIEELRERVWALFDVRPECQRLFYRGKQLENGYTLFDYDVGLNDIIQLLVRPDPDHLPGTSTQIEAKPCSNSPPKVKKAPRVGPSNQPSTSARARLIDPGFGIYKVNELVDARDVGLGAWFEAHIHSVTRASDGQSRGKTPLKNGSSCKRTNGNIKHKSKENTNKLDSVPSTSNSDCVAADEDVIYHIQYDEYPESGTLEMNVKDLRPRARTILKWNELNVGDVVMVNYNVESPGQRGFWFDAEITTLKTISRTKKELRVKIFLGGSEGTLNDCKIISVDEIFKIERPGAHPLSFADGKFLRRNDPECDLCGGDPEKKCHSCSCRVCGGKHEPNMQLLCDECNVAYHIYCLNPPLDKVPEEEYWYCPSCKTDSSEVVKAGERLKMSKKKAKMPSASTESRRDWGRGMACVGRTRECTIVPSNHYGPIPGIPVGSTWRFRVQVSEAGVHRPHVGGIHGRSNDGAYSLVLAGGFADEVDRGDEFTYTGSGGKNLAGNKRIGAPSADQTLTNMNRALALNCDAPLDDKIGAESRNWRAGKPVRVIRSFKGRKISKYAPEEGNRYDGIYKVVKYWPEISSSHGFLVWRYLLRRDDVEPAPWTSEGIERSRRLCLRLQYPAGYPSDKEGKKPKGQSKKQPSGTTKRPISDDDCPSASKVYKASDSAEAIEAFQLTPQQQHLIREDCQNQKLWDEVLSHLVEGPNFLKKLEQSFMCVCCQELVYQPVTTECFHNVCKDCLQRSFKAQVFSCPACRHDLGQNYIMIPNEILQTLLDLFFPGYSKGR [UHRF2] | 44.3 | 46.9 | 0.175 | -0.401 | 2.81 | 4.34
